Measured values taken from article PMC9138599, “Clade-Specific Alterations within the HIV-1 Capsid Protein with Implications for Nuclear Translocation” (Biomolecules, 2022).
Values joined by “and” are separate entries in the source; they are usually repeats but may differ in a detail not shown here. Identical values can stand only once.

Assays:
[1] = molecular target: NUP-153 RRR patch (Homo sapiens) (UniProt P49790); settings: cited from earlier work
[2] = molecular target: HIV-1 CA hexamer from clade A1 (isolate 92UG037.1) (HIV-1 isolate 92UG037.1 (clade A1)); assay: cross-linking
[3] = molecular target: HIV-1 CA hexamer from clade A2 (isolate CDKTB48) (HIV-1 isolate CDKTB48 (clade A2)); assay: cross-linking
[4] = molecular target: HIV-1 CA hexamer from clade B (isolate NL4-3) (HIV-1 isolate NL4-3 (clade B)); assay: cross-linking
[5] = molecular target: HIV-1 CA hexamer from clade C (isolate 92BR025.8) (HIV-1 isolate 92BR025.8 (clade C)); assay: cross-linking
[6] = molecular target: HIV-1 CA hexamer from clade D (isolate 94UG114.1) (HIV-1 isolate 94UG114.1 (clade D)); assay: cross-linking
[7] = molecular target: HIV-1 CA hexamer from clade A2 (isolate CDKTB48) (HIV-1 isolate CDKTB48 (clade A2)); assay: SPR; CA hexamer amine-coupled to a ProteOn GLH chip, peptide injected as analyte; 25 °C; 1x PBS pH 7.4, 3% DMSO, 0.005% polysorbate 20; reference surface IgG b12; 1:1 binding model; KD from a Langmuir isotherm equilibrium fit and from a global kinetic fit; triplicate
[8] = molecular target: HIV-1 CA hexamer from clade C (isolate 92BR025.8) (HIV-1 isolate 92BR025.8 (clade C)); assay: as above
[9] = molecular target: HIV-1 CA hexamer from clade D (isolate 94UG114.1) (HIV-1 isolate 94UG114.1 (clade D)); assay: as above

CA (from UniProt O93215)
Kd [1]: 0.8 µM

HIV-1 CA hexamer from clade A1 (isolate 92UG037.1) (natural protein)
stoichiometry N [2]: 6

HIV-1 CA hexamer from clade A2 (isolate CDKTB48) (natural protein)
stoichiometry N [3]: 6

HIV-1 CA hexamer from clade B (isolate NL4-3) (natural protein)
stoichiometry N [4]: 6

HIV-1 CA hexamer from clade C (isolate 92BR025.8) (natural protein)
stoichiometry N [5]: 6

HIV-1 CA hexamer from clade D (isolate 94UG114.1) (natural protein)
stoichiometry N [6]: 6

NUP-153 peptide (1407-…-1423)
Kd [7]: 443 µM and 746 µM | Kd [8]: 503 µM and 881 µM | Kd [9]: 309 µM and 368 µM
